In one experiment the target is T1, P. abyssi aCBF5 protein (Pyrococcus abyssi, UniProt Q9V1A5 1-334).
T1 sequence (looked up): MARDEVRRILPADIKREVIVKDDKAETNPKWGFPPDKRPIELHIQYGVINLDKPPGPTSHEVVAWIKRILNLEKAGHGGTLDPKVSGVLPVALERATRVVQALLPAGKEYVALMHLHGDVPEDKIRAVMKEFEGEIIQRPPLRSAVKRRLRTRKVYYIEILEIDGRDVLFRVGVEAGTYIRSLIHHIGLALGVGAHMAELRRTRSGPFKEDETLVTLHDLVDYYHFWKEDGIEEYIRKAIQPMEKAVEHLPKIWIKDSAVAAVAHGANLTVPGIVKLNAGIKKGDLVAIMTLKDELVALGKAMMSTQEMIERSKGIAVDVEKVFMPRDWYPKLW
The experiment is described as follows: cell-based or functional assay.

The next experiment deals with T2, aCBF5 K53A variant (Pyrococcus abyssi, UniProt Q9V1A5 1-334, K53A).
T2 sequence (looked up): T1 sequence (looked up) with K53A
The experiment in a line: native gel or EMSA.

A further experiment addresses T3, aCBF5 H77A variant (Pyrococcus abyssi, UniProt Q9V1A5 1-334, H77A).
T3 sequence (looked up): T1 sequence (looked up) with H77A
The experiment in a line: native gel or EMSA. Background: A gel shift assay detects complexes by their altered migration in electrophoresis.

A further experiment deals with T4, aCBF5 R202A variant (Pyrococcus abyssi, UniProt Q9V1A5 1-334, R202A).
T4 sequence (looked up): T1 sequence (looked up) with R202A
The experiment in a line: native gel or EMSA.

Positions count from the first letter of the chain named.

B1: P. abyssi aNOP10 protein (natural protein, Pyrococcus abyssi, UniProt Q9V0E3 1-60, looked up)
chain: MRFRIRKCPKCGRYTLKETCPVCGEKTKVAHPPRFSPEDPYGEYRRRLKRELLGIGRKEK
In the case of B1, the “level of aCBF5-tRNAAsp complexes by EMSA, with against without aNOP10” value in the experiment with P. abyssi aCBF5 protein was roughly 4 fold. Moreover, the binding result with aCBF5 K53A variant, in the experiment with aCBF5 H77A variant and with aCBF5 R202A variant was “binds” each time.

The values above are taken from PMC2018633 (Nucleic Acids Research, 2007).
